The target of experiment [1] is taxol-stabilized microtubules (bovine (brain)) (UniProt Q6B856). The experiment in a line: co-sedimentation.
For experiment [2], the target named is kinesin heavy chain deletion mutant H810 (stop codon after amino acid 810), myc-tagged (rat) (UniProt Q2PQA9). The experiment in a line: co-IP.

The text below walks through data of publication PMC2132950.

Sequence of UniProt Q6B856 (Q6B856 whole entry, looked up): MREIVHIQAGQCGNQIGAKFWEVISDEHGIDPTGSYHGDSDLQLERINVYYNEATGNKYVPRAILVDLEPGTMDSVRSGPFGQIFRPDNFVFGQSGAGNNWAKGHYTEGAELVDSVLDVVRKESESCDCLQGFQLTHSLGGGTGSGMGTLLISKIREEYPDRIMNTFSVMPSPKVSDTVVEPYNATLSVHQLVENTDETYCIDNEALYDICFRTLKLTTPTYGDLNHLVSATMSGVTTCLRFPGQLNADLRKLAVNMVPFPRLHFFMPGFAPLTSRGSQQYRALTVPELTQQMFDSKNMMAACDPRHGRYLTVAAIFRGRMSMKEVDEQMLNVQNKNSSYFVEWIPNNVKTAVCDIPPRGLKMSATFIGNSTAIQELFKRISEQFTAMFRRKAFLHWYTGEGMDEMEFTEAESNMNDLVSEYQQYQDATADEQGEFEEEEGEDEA
Sequence of UniProt Q2PQA9 (Q2PQA9 2-963, stated change not applied): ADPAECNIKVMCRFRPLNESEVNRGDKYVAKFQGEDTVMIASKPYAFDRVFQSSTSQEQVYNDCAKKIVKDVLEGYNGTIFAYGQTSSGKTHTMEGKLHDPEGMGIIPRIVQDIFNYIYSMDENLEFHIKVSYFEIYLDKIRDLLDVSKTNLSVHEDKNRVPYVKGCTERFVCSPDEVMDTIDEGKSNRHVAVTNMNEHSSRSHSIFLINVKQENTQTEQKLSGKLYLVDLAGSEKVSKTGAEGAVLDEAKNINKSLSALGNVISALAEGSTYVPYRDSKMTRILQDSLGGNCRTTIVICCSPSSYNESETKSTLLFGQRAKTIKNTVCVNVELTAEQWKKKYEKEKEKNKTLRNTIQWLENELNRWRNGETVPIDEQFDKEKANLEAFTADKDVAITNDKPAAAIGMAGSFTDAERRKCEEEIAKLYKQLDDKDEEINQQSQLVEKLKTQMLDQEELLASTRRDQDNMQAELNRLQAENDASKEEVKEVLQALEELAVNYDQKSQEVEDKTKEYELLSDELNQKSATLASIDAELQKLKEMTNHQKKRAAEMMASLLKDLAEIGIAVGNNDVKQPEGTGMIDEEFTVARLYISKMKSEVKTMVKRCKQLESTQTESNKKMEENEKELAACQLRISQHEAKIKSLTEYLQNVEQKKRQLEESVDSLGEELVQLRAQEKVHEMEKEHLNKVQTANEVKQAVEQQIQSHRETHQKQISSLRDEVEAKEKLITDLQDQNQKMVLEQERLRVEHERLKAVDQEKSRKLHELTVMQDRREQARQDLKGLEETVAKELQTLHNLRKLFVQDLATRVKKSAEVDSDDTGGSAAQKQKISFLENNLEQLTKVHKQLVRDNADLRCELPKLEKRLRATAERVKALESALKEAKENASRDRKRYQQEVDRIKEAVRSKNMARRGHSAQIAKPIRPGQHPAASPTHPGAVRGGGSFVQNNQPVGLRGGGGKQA

Turning to “HC coexpressed with the LC deletion mutant L176 (from UniProt Q2PQA9 1-963; P37285 1-176) (complex)”, in experiment [1], the percent of HC bound to MTs came to 50% and the percent of L176 bound to MTs was 20%.
Substance “HC deletion mutant H810 coexpressed with LC (from UniProt Q2PQA9 1-810; P37285 1-560) (complex)” had a percent of the HC construct sedimented with MTs in experiment [1] of 90%.
The same measure, in the same setting: to “HC deletion mutant H891 coexpressed with LC (from UniProt Q2PQA9 1-891; P37285 1-560) (complex)” belongs 50 to 95%.
Turning to “NH2-terminal 420 amino acids of human conventional kinesin heavy chain (from UniProt P33176 1-420) (domain or fragment)”, the tubulin concentration at half-maximal binding in experiment [1] was 0.15 mM.
In the case of “kinesin light chain splice form C (rat), HA-tagged (from UniProt P37285 1-560) (natural protein)”, the percent of LC coprecipitated in experiment [2] amounted to 50%.
